Source: patent US20250332254A1, “METHODS FOR TREATING PATIENTS WITH FAMILIAL HYPERCHOLESTEROLEMIA” (REGENERON PHARMACEUTICALS, INC., priority 2016, published 2025)
Where “and” joins values, the source holds several entries; their conditions need not be identical. Equal entries are not always repeated.

Biological target: T1, ANGPTL3 (Homo sapiens, UniProt Q9Y5C1)
T1 construct: Angiopoietin-like protein 3 (ANGPTL3) is a secreted protein expressed in the liver; from tissue; host or cells: in vivo, human subjects; circulating protein secreted by the liver
T1 sequence (Q9Y5C1 17-460): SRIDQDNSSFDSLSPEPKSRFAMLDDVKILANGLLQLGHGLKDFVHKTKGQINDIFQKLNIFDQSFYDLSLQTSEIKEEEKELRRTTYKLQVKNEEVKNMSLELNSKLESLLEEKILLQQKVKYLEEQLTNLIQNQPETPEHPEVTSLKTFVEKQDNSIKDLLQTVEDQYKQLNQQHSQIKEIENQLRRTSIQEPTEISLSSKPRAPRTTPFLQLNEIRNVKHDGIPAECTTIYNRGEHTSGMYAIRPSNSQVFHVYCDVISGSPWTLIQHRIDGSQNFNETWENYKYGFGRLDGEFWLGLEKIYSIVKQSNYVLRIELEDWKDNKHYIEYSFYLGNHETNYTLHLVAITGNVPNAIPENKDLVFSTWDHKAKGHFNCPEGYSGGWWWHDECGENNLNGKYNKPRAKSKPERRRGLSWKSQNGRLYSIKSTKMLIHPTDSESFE
Assay: Phase 2 open-label study of evinacumab in patients with homozygous familial hypercholesterolemia on concomitant lipid-lowering therapies
Assay type: in vivo
Details: for LDL-C, Mean of Percent Change from Baseline ± SE (%) / Non-HDL-C, Mean of Percent Change from Baseline ± SE (%) / Apolipoprotein B, Mean of Percent Change from Baseline ± SE (%): 250 mg SC wk 0 + 15 mg/kg IV wk 2
Protocol: Patients: The nine patients (5 men, 4 women) were selected based on their genotypes and phenotypes. All presented a history of LDL-C >500 mg per deciliter or >400 mg per deciliter after portacaval shunt, premature atherosclerosis (8 of 9 with prior history of cardiovascular events) and severe xanthomatosis, and were homozygotes or compound heterozygotes for known FH-causing LDLR mutations (Hobbs, et al. 1992 Hum Mutat 1:445-66). Three patients were null homozygotes. All patients were on maximally tolerated lipid-lowering therapy.
Study Treatment: The patients were required to maintain their usual background lipid-lowering therapy and diet and exercise regimens throughout the study. All patients received a single open-label dose of evinacumab 250 mg subcutaneously in the abdominal area during the baseline visit and a single 15 mg per kilogram intravenous dose of evinacumab 2 weeks later. The sterile, lyophilized evinacumab drug product was supplied in a 5-ml single-use glass vial for reconstitution to a concentration of 100 mg per milliliter for subcutaneous doses and 50 mg per milliliter for intravenous doses. Patients were followed for a period of up to 24 weeks after the intravenous dose to allow for washout of evinacumab, and were offered enrollment in an extension study.
Pharmacodynamic Assessment: Fasting blood samples were collected before administration of study drug, at baseline and at regular intervals during the open-label treatment period and safety follow-up period, for measurement of LDL-C, non-HDL-C, total cholesterol, HDL-C, apolipoprotein B, lipoprotein (a), triglycerides, apolipoprotein A-1, and other parameters. The primary endpoint was the mean ±standard deviation (SD) percent change in LDL-C from baseline to week 4.

[1] = 3 homozygous null patients, through week 12
[2] = nine HoFH patients, baseline to week 4, given as a decrease
[3] = nine HoFH patients, between weeks 4 and 12

“evinacumab: human anti-ANGPTL3 monoclonal antibody; HCVR SEQ ID NO:1, LCVR SEQ ID NO:5” was tested. Which “mean±SD peak reduction in LDL-C” value [1] did it give?
Its value is −48±13%.

What about the “range of peak reduction in LDL-C” value [1] of the same substance?
The value was −60% to −33%.

And the tolerability (250-mg subcutaneous injection at baseline and 15 mg per kilogram intravenous infusion at week 2)?
The tolerability was “well tolerated”.

What about the “absolute reductions in LDL-C achieved” value (HoFH patients) of the same substance?
Its value is 150 to 200 mg/dL.

And the “LDL-C, Mean of Percent Change from Baseline ± SE (%)” value (HoFH patients, Day 4)?
Its value is −12.8 ± 3.7%.

What about the “Non-HDL-C, Mean of Percent Change from Baseline ± SE (%)” value (HoFH patients, Day 4) of the same substance?
The value was −13.6 ± 3.6%.

And the “LDL-C, Mean of Percent Change from Baseline ± SE (%)” value (HoFH patients, Week 1)?
Its value is −24 ± 7.0%.

And the “Non-HDL-C, Mean of Percent Change from Baseline ± SE (%)” value (HoFH patients, Week 1)?
The value was −24.1 ± 6.7%.

And the “Apolipoprotein B, Mean of Percent Change from Baseline ± SE (%)” value (HoFH patients, Week 2)?
Its value is −24.2 ± 7%.

And the “LDL-C, Mean of Percent Change from Baseline ± SE (%)” value (HoFH patients, Week 2)?
Its value is −30.2 ± 8.1%.

What about the “Non-HDL-C, Mean of Percent Change from Baseline ± SE (%)” value (HoFH patients, Week 2) of the same substance?
Its value is −29.6 ± 7.8%.

What about the “Apolipoprotein B, Mean of Percent Change from Baseline ± SE (%)” value (HoFH patients, Week 3) of the same substance?
Its value is −38.6 ± 7.3%.

And the “LDL-C, Mean of Percent Change from Baseline ± SE (%)” value (HoFH patients, Week 3)?
The value was −41.4 ± 8.3%.

What about the “Non-HDL-C, Mean of Percent Change from Baseline ± SE (%)” value (HoFH patients, Week 3) of the same substance?
Its value is −41.6 ± 8%.

What about the “Apolipoprotein B, Mean of Percent Change from Baseline ± SE (%)” value (HoFH patients, Week 4) of the same substance?
Its value is −45.9 ± 6.1%.

What about the “LDL-C, Mean of Percent Change from Baseline ± SE (%)” value (HoFH patients, Week 4) of the same substance?
Its value is −49.2 ± 7.7%.

And the “Non-HDL-C, Mean of Percent Change from Baseline ± SE (%)” value (HoFH patients, Week 4)?
The value was −48.9 ± 7.4%.

And the “Apolipoprotein B, Mean of Percent Change from Baseline ± SE (%)” value (HoFH patients, Week 5)?
Its value is −42.3 ± 4.7%.

What about the “LDL-C, Mean of Percent Change from Baseline ± SE (%)” value (HoFH patients, Week 5) of the same substance?
Its value is −46.8 ± 5.1%.

What about the “Non-HDL-C, Mean of Percent Change from Baseline ± SE (%)” value (HoFH patients, Week 5) of the same substance?
Its value is −46.6 ± 5.0%.

What about the “Apolipoprotein B, Mean of Percent Change from Baseline ± SE (%)” value (HoFH patients, Week 6) of the same substance?
Its value is −43.1 ± 4.9%.

What about the “LDL-C, Mean of Percent Change from Baseline ± SE (%)” value (HoFH patients, Week 6) of the same substance?
Its value is −52.1 ± 4.9%.

And the “Non-HDL-C, Mean of Percent Change from Baseline ± SE (%)” value (HoFH patients, Week 6)?
Its value is −51.5 ± 4.8%.

What about the “Apolipoprotein B, Mean of Percent Change from Baseline ± SE (%)” value (HoFH patients, Week 8) of the same substance?
The value was −42.7 ± 4.8%.

And the “LDL-C, Mean of Percent Change from Baseline ± SE (%)” value (HoFH patients, Week 8)?
The value was −51.6 ± 6.0%.

What about the “Non-HDL-C, Mean of Percent Change from Baseline ± SE (%)” value (HoFH patients, Week 8) of the same substance?
Its value is −50.6 ± 5.7%.

What about the “LDL-C, Mean of Percent Change from Baseline ± SE (%)” value (HoFH patients, Week 10) of the same substance?
Its value is −45.6 ± 4.6%.

And the “Non-HDL-C, Mean of Percent Change from Baseline ± SE (%)” value (HoFH patients, Week 10)?
The value was −44.8 ± 4.4%.

What about the “Apolipoprotein B, Mean of Percent Change from Baseline ± SE (%)” value (HoFH patients, Week 12) of the same substance?
Its value is −29.5 ± 7.2%.

And the “LDL-C, Mean of Percent Change from Baseline ± SE (%)” value (HoFH patients, Week 12)?
Its value is −36.6 ± 6.4%.

And the “Non-HDL-C, Mean of Percent Change from Baseline ± SE (%)” value (HoFH patients, Week 12)?
The value was −36.4 ± 6.2%.

What about the “LDL-C reached, Patient C” value (Patient C on high-dose statins, ezetimibe and lomitapide, week 4, 2 weeks after evinacumab intravenous administration) of the same substance?
The value was 15 mg per deciliter.

And the “reduction in LDL-C, Patient C” value (Patient C, concomitant lomitapide, 2 weeks after evinacumab intravenous administration)?
The value was 90%.

What about the “reduction in LDL-C, Patient G” value (Patient G, concomitant lomitapide, 2 weeks after evinacumab intravenous administration) of the same substance?
The value was 44%.

And the “reductions in LDL-C from baseline in all patients” value (all nine patients, including the three homozygous null patients lacking LDLR activity)?
The value was “clinically meaningful reductions in LDL-C from baseline”.

What about the “normalization of LDL-C concentrations” value (evinacumab add-on therapy in HoFH participants) of the same substance?
Its value is “normalization of LDL-C concentrations in four HoFH participants”.

What about the “LDL-C decreased (primary endpoint)” value (nine HoFH adults on maximally-tolerated conventional therapies, week 4, given as a decrease) of the same substance?
The value was 49%.

What about the “adverse events considered as related to the study medication” value (nine HoFH patients) of the same substance?
Its value is “Six events were considered as related to the study medication”.

What about the “adverse events leading to treatment discontinuation” value (nine HoFH patients) of the same substance?
The value was “none led to treatment discontinuation”.

And the “occurrence of at least one adverse event” value (nine HoFH patients)?
The value was “All nine patients reported the occurrence of at least one adverse event”.

And the serious adverse events (nine HoFH patients)?
The serious adverse events was “One event (coronary artery disease due to underlying disease) was serious but was not considered as related to the study medication”.

What about the “triglycerides percent change, interquartile range” value (nine HoFH patients, baseline to week 4) of the same substance?
The value was −57% to −38%.

And the “HDL-C decreased by (percent change, mean±SD)” value [2]?
The value was 36±16%.

What about the “apolipoprotein B decreased by (percent change, mean±SD)” value [2] of the same substance?
Its value is 46±18%.

What about the “non-HDL-C decreased by (percent change, mean±SD)” value [2] of the same substance?
The value was 49±22%.

And the “triglycerides decreased by (percent change, median)” value [2]?
Its value is 47%.

What about the “Overall mean±SD peak reduction in LDL-C” value [3] of the same substance?
Its value is -58+18% and −58±18%.

What about the “absolute peak reduction in LDL-C” value [3] of the same substance?
Its value is 202 mg/dL.

What about the “range of peak reduction in LDL-C” value (nine HoFH patients, between weeks 4 and 12, range across patients) of the same substance?
Its value is -90% to-33%.

What about the “absolute change from baseline in LDL-C (mean±SD)” value (nine HoFH patients, week 4) of the same substance?
Its value is −157±90 mg per deciliter.

What about the “mean±SD achieved LDL-C value” (nine HoFH patients, week 4) of the same substance?
Its value is 219±191 mg per deciliter.

And the “mean±SD percent change in LDL-C from baseline to week 4 (pre-specified primary endpoint)” value (nine HoFH patients, week 4)?
The value was −49±23%.

What about the “range of absolute change from baseline in LDL-C” value (nine HoFH patients, week 4, range across patients) of the same substance?
Its value is −323 to −71 mg per deciliter.

And the “reduction in LDL-C achieved by one patient” value (one patient, week 4 (2 weeks after the intravenous dose))?
Its value is “greater than 80%”.

What about the “reduction in LDL-C, patient D” value (patient D, no lomitapide, week 4) of the same substance?
Its value is −77%.
